Literature values, collected in patent US20050118241A1, “Platform for transdermal formulations (ptf)” (priority 2002, published 2005).

Conditions: extensively degraded in liver, kidney and plasma

For glucagon, the half-life is given as 3 to 6 min.
